Results taken from the supplement of paper PMC10724198.
± gives the standard deviation of the averaged measurements.

Tested on: Saccharomyces cerevisiae
Test: protein stability index of tFT-peptide fusion (C-terminal peptide) (PSI (0-1 scale)); higher = more stable (slower turnover)
Details: genetic background: wild type; temperature: 30 C
Method: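 Multiplexed protein stability (MPS) profiling in S. cerevisiae. Random 12-aa peptides (tFT-X12 library) are fused to the C-terminus of a sfGFP-mCherry tandem fluorescent timer, after mCherry and a GGGS linker. Cells are FACS-sorted into 8 mCherry/sfGFP bins and deep-sequenced. The protein stability index (PSI) is the read-weighted bin average, scaled from 0 (unstable) to 1 (stable). Only peptides with >10 reads are reported; cells were grown at 30 °C in SC-His with glucose.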
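Also: PSI is a weighted mean of sequencing reads over stability bins, variants kept only with over 10 reads, mCherry proximal and sfGFP distal, peptide attached via GGGS linker.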

Sequence | protein stability index
GCGGVWGRSEKY | 0.684 ± 0.019
GCGHVFEVNYEC | 0.6206 ± 0.0053
GCGKRVVVVSEL | 0.6386 ± 0.00072
GCGLGEEGSSGV | 0.647 ± 0.0091
GCGRYWGVVRGC | 0.66 ± 0.037
GCHRRDALRTGD | 0.667 ± 0.053
GCLFLCPLSPLI | 0.685 ± 0.026
GCLIAGGIDCPP | 0.66 ± 0.072
GCPRSCYIPSSV | 0.72 ± 0.011
GCPSGRDIQSSH | 0.643 ± 0.01
GCRELVRCVMLG | 0.669 ± 0.083
GCRRGFRKGQDC | 0.645 ± 0.023
GCSACLVSSLAG | 0.63129 ± 4e-05
GCSGRRGRGGRG | 0.743 ± 0.046
GCTTDQIENEIR | 0.704 ± 0.033
GCYGRVLELAWR | 0.552 ± 0.035
GDDGGSGGCVER | 0.6606 ± 0.0051
GDDVGTEVIVET | 0.684 ± 0.0094
GDGQETEKNNAE | 0.604 ± 0.046
GDGRCAVPFWWG | 0.805 ± 0.074
GDKGLRPNMGLV | 0.645 ± 0.0099
GDRGGLARAGGA | 0.753 ± 0.065
GDSGPDDDLGIS | 0.667 ± 0.065
GDSWVVRSGVWV | 0.734 ± 0.13
GEAASEKKQEAG | 0.644 ± 0.084

Sequence | protein stability index
GEDGCGGSEAGG | 0.656 ± 0.028
GEGALTGGAGGQ | 0.647 ± 0.0074
GEGCPAGGHGCE | 0.6864 ± 0.0063
GEGGGAGGLEWG | 0.687 ± 0.081
GEGRWWGSFWVG | 0.672 ± 0.019
GEGSQTGSLIPL | 0.71 ± 0.031
GENAIVEVWAGG | 0.686 ± 0.022
GFCCLGGVRPSV | 0.655 ± 0.027
GFCRKESVRCEK | 0.683 ± 0.018
GFDFLHHIVASS | 0.728 ± 0.017
GFEAFGPFIPAF | 0.681 ± 0.019
GFEVAFSCSSWW | 0.716 ± 0.038
GFGKVIMEIESI | 0.715 ± 0.043
GFLGCGSGCGGG | 0.777 ± 0.1
GFLPDSKVKNPF | 0.673 ± 0.029
GFMSFAVTCGLL | 0.688 ± 0.11
GFQIVCSAGERV | 0.611 ± 0.027
GFSLLGPFAFWV | 0.688 ± 0.066
GFSSSFAGGLLF | 0.763 ± 0.036
GFSTCCLFWLTV | 0.529 ± 0.029
GFVLSFADLLGV | 0.653 ± 0.054
GFVQGNNGFLMK | 0.682 ± 0.034
GFWLVSCPWLLF | 0.612 ± 0.14
GFYAMWNSIFWF | 0.743 ± 0.001
GGAAGRRAAEVG | 0.694 ± 0.013

Sequence | protein stability index
GGAPAPPSRRPW | 0.696 ± 0.032
GGAVSRVGEGGR | 0.785 ± 0.02
GGCCLWVGFPGG | 0.6957 ± 0.0051
GGCSLRWARCRW | 0.686 ± 0.078
GGCVSRPLGRCV | 0.648 ± 0.088
GGDGAVSRRWGR | 0.685 ± 0.015
GGDGGLVMGGGN | 0.684 ± 0.018
GGDVCGWWCWRG | 0.645 ± 0.098
GGDWVVVALLGV | 0.596 ± 0.017
GGEVGRGRLGVV | 0.628 ± 0.018
GGFALIWQRVCP | 0.705 ± 0.011
GGGACRVCGCEV | 0.648 ± 0.0067
GGGECLWNKQAV | 0.687 ± 0.024
GGGGAGGGAGGG | 0.616 ± 0.042
GGGGCVGEWWGR | 0.7423 ± 0.0039
GGGGEGPGKSPR | 0.669 ± 0.14
GGGGFLGVVGVG | 0.58 ± 0.01
GGGGGGGGSLRV | 0.663 ± 0.038
GGGGGGGGVKGV | 0.66 ± 0.02
GGGGGGSTPALG | 0.667 ± 0.028
GGGGGLRGRGVR | 0.682 ± 0.057
GGGGGLVGGCVA | 0.696 ± 0.081
GGGGGWGVAGGV | 0.689 ± 0.013
GGGGLGTAVVGV | 0.6748 ± 0.0024
GGGGSTIGVYVL | 0.686 ± 0.0047

Sequence | protein stability index
GGGGVVGGLLCS | 0.761 ± 0.027
GGGKINSLHGAG | 0.681 ± 0.041
GGGLGGAGFRGG | 0.661 ± 0.051
GGGRGGARVGQL | 0.661 ± 0.013
GGGRGVVVTCST | 0.713 ± 0.038
GGGRRVRRGGGR | 0.678 ± 0.056
GGGSFVGLDFGG | 0.6567 ± 0.0036
GGGVGGGVGQRG | 0.705 ± 0.086
GGGVLLWEGGGW | 0.711 ± 0.02
GGGVRWRVGRGG | 0.686 ± 0.0082
GGGVSFWLGAVA | 0.647 ± 0.0081
GGGVVRGLEQRA | 0.637 ± 0.074
GGGVYPAGVVSG | 0.658 ± 0.01
GGGWGLRVSCGT | 0.656 ± 0.071
GGGWGRSKTETT | 0.672 ± 0.023
GGGWGWAGENTR | 0.698 ± 0.038
GGILSRVFFLCG | 0.679 ± 0.017
GGIQPEQYLNTL | 0.688 ± 0.019
GGIVVRGVGVRC | 0.661 ± 0.04
GGKGGWHRRWGC | 0.643 ± 0.062
GGLGGVRAGREG | 0.711 ± 0.02
GGLGREKLGGWR | 0.65 ± 0.091
GGLICRQGVGRG | 0.748 ± 0.033
GGLLSTVVVRVL | 0.524 ± 0.022
GGLRGERAGTDG | 0.637 ± 0.02

Sequence | protein stability index
GGLRGRPPASHR | 0.727 ± 0.074
GGLSGRFRSPSL | 0.754 ± 0.081
GGLWGSGGASGG | 0.742 ± 0.073
GGMDEVFRAHGP | 0.712 ± 0.018
GGMRGGYRGRCV | 0.679 ± 0.039
GGPHYVYPFCSF | 0.699 ± 0.019
GGPPFAPPPPPH | 0.71 ± 0.026
GGPVEQVYSKGR | 0.721 ± 0.042
GGQEEWFGGAWL | 0.727 ± 0.036
GGRARRGLGGPG | 0.6758 ± 0.0034
GGRDVGEMVDLQ | 0.758 ± 0.14
GGRGGCGCGWVV | 0.682 ± 0.11
GGRGGRGQGWYR | 0.661 ± 0.007
GGRGGVWWVGRV | 0.675 ± 0.037
GGRGLGVVGEVL | 0.72 ± 0.046
GGRGVGVVLGVC | 0.5219 ± 0.00031
GGRGWEGRGGSG | 0.684 ± 0.022
GGRLGRGAKGRV | 0.669 ± 0.082
GGRPVTGIAGML | 0.666 ± 0.025
GGRTFHPLWGTT | 0.735 ± 0.029
GGRWNRNSGRGG | 0.693 ± 0.021
GGSARSIPVHVV | 0.584 ± 0.025
GGSDQLGDSVAG | 0.647 ± 0.057
GGSETHLTVTIY | 0.636 ± 0.0077
GGSGAVRSVGEW | 0.668 ± 0.036

Sequence | protein stability index
GGSSVGALGCLC | 0.687 ± 0.0084
GGTPGSYDIIGV | 0.728 ± 0.016
GGVGGPVLGAGG | 0.638 ± 0.051
GGVGRAALRWYG | 0.68 ± 0.03
GGVGRRVRLGAE | 0.625 ± 0.037
GGVGSCLVLSAR | 0.668 ± 0.036
GGVLGRRLLGGR | 0.64 ± 0.051
GGVPRNRAQIGV | 0.758 ± 0.082
GGVRGWAAFSAE | 0.682 ± 0.028
GGVRRRSAVGVR | 0.65129 ± 0.00017
GGVSKGLGARGR | 0.601 ± 0.042
GGVTEGPGWCVR | 0.735 ± 0.017
GGVVEGVSLAQC | 0.727 ± 0.049
GGVVGASMSGTP | 0.683 ± 0.023
GGVVLTWLGENC | 0.717 ± 0.025
GGVWAGEATGVQ | 0.666 ± 0.052
GGVWWLGVVGGV | 0.657 ± 0.081
GGWCGSGGVVRG | 0.675 ± 0.12
GGWGRGERRSRE | 0.652 ± 0.045
GGWLGGLGCFMV | 0.708 ± 0.046
GHGEGPGRDLGG | 0.648 ± 0.055
